# Test: soluble on expression in E. coli; label from the status in PepcDB or PDB records
row,Sequence,soluble on expression in E. coli
1,MMSQQFNVAIFGATGAVGETMLEVLQEREFPVDELFLLASERSEGKTYRFNGKTVRVQNVEEFDWSQVHIALFSAGGELSAKWAPIAAEAGVVVIDNTSHFRYDYDIPLVVPEVNPEAIAEFRNRNIIANPNCSTIQMLVALKPIYDAVGIERINVTTYQSVSGAGKAGIDELAGQTAKLLNGYPAETNTFSQQIAFNCIPQIDQFMDNGYTKEEMKMVWETQKIFNDPSIMVNPTCVRVPVFYGHAEAVHVETRAPIDAEQVMDMLEQTDGIELFRGADFPTQVRDAGGKDHVLVGRVRNDISHHSGINLWVVADNVRKGAATNAVQIAELLVRDYF,not soluble
2,MLQKPKSVKLRALRSPRKFGVAGRSCQEVLRKGCLRFQLPERGSRLCLYEDGTELTEDYFPSVPDNAELVLLTLGQAWQGYVSDIRRFLSAFHEPQVGLIQAAQQLLCDEQAPQRQRLLADLLHNVSQNIAAETRAEDPPWFEGLESRFQSKSGYLRYSCESRIRSYLREVSSYPSTVGAEAQEEFLRVLGSMCQRLRSMQYNGSYFDRGAKGGSRLCTPEGWFSCQGPFDMDSCLSRHSINPYSNRESRILFSTWNLDHIIEKKRTIIPTLVEAIKEQDGREVDWEYFYGLLFTSENLKLVHIVCHKKTTHKLNCDPSRIYKPQTRLKRKQPVRKRQLEHHHHHH,not soluble
3,GSHMSKDATKEISAPTDAKERSKAIETAMSQIEKAFGKGSIMKLGAESKLDVQVVSTGSLSLDLALGVGGIPRGRITEIYGPESGGKTTLALAIVAQAQKAGGTCAFIDAEHALDPVYARALGVNTDELLVSQPDNGEQALEIMELLVRSGAIDVVVVDSVAALTPRAEIEGDMGDSLPGLQARLMSQALRKLTAILSKTGTAAIFINQVREKIGVMYGNPETTTGGRALKFYASVRLDVRKIGQPTKVGNDAVANTVKIKTVKNKVAAPFKEVELALVYGKGFDQLSDLVGLAADMDIIKKAGSFYSYGDERIGQGKEKTIAYIAERPEMEQEIRDRVMAAIRAGNAGEAPALAPAPAAPEAAEA,soluble
4,MGSDKIHHHHHHMRLYTRTGDKGKTSVIGGRLAKDDTRVVAYGTTDELNSFVGLAITQLDENTFADIRGELFKIQHELFDCGGDLAMLKVKEDRPYKAKQEIVDFLEQRIDAYIKEAPELERFILPGGSEAAASLHVCRTIARRAERYVVRLQQEGEINPIVLKYLNRLSDYFFAVARVVNSRLQVPDVEYERSAIVFREGKRKEDKK,not soluble
5,MKLTQLDLSHNNLSVIPTWALTYLHSLQILHLENNRIDVLRSNTFDETQLNNLQFLYLDNNQLRIIPNLAFNHLRLVVLMLANNRITEIQKMSLPQTLKFLVLRNNLLTQIPYVALNDLKTLQSIDLEGNNITHLMDTNEVTFESEMKVILRNNKVRRLDKHSFRSFRKIRELDISYNQIQTVEDSSFETVGHMQSLDLSYNRIAYLPRGMLKNFAKTLKTLKLAENMIHATPEALRDLRNLTHLNLNGNKLNRIDGDVLKGCTDTLVELFIANNYLEHIPHGVLSGMKQLEHLDISKNKIMSLKKPTSLLSITKEETSTVRRLNLAGNRINNMSDYLIFEHMPLLTYVDVSFNRIRFISPRVFEKLKNLESLFLQNNQLAHFPSLFRLDKLRHLMLDNNQIQKIDNFSLADLPKLQHLSLAGNQLDIITENMFGSSSSSELKSLNLAHNKIHSISSRSFSDLDNLQQLRLSHNNIRTITSMTFSNLRNLRYLDLSHNRIIKILPSALYQLPALDVLHLDHNNLNEIDRDAFRSFSDLQSLKLSHNAFRRFSCEFLGSISQVHQLDLSSNQINEIDIFCIARGIRKLSLASNSVEKINRKLLQDATELTSIDISHNGIIDVDSDAFCECRKLSHIKLSHNYIRNLWKGTRVCIPWISHLTTFCFFTKEHLERTISFSYIIVDSSQLTSFGNLSILSFANNKVDSIEDGAFENLLSLKILDLSNNPVTSWSPTAFRDLSHSISSINMANTGLFSMPKFSHRSIQSLNISCNKIYELSEKDLAPLTKVVALDISHNNLKQISSMAFEPLIHLKQLNVSANPITHLTNEHIQQLYKLYNIPDMARPYQISSILSNLPPLHTIYVDIKESALDRQFYTADTRLLRHLVVAGRNLTKIEVGAFATIRGFRVRIEIHNSSIEEFPSRIFDTLTGISILSLSLTDNKLTTFNPFQSTVAPAVNQHGTILHSLELKNNPIKCDCQFKWMDDFIRVTKFLSDHHISHDFDKVECADAQSSNLESFASAANELFSYKTKMTLLSKSEDFGLECAVKYSNPLKPLIYVLMLVCLSYL,not soluble
6,MSLKITDVRVIRFRTHADRWDIGHARLRPAAEVSQTVTCIDTDAGLTGWFFGGGKHGDQDGMSPDEQRLIEGRVRDLLLGVDPFDREAVWKWMWVANLPEVAQSVIDCALWDLAGRAAGQPVYKLMGAARDKVPAYASTYPNIGPPQVYAEHALACRAEGYKAYKIHPHYFWNPDTGLPTKGRPSNIRADIETINLVREAVGPDMVLMYDVWGTYHTIEETIKVGRELERNDFYWFEHPMPEYRVESYRRLCRELSIPILAPEIAAGGVFTRAEWILQGASDMSRMDIRRGGVTGCRKTAVVCEAFGQRCEIHMAGWGNLQVMGATSQDTSEWYEKGLLAPGVDYDAPHPYLERNCDPMDAEGHVALPTAPGLGYEPIWDYIDDNRVPSEGHHHHHH,soluble
7,GTVSATSPNKCKRPMNAFMLFAKKYRVEYTQMYPGKDNRAISVILGDRWKKMKNEERRMYTLEAKALAEEQKRLNPDCWK,soluble
8,GFKDYGHDYHPAPKTENIKGLGDLKPGIPKTPKQNGGGKRKRWTGDKGRKIYEWDSQHGELEGYRASDGQHLGSFDPKTGNQLKGPDPKRNIKKYL,soluble
9,MGSDKIHHHHHHMRKDGHMQLQTIKVQGFKSIRELEFSLRPLNILIGANGSGKSNILGVFAFLRAMVERHLQMYVARAGGADRILHFGQKNTDSLQIELWFTKKNRRARGNIIANGYRCALVPAVGDRFVFAEERAFFHDRRYEKPVETLLGSGHEESLLPASYGRGIPADVFEAMQSWIVYHFHDTSDSARVKQTGDIDDNYWLRQDASNLTAYLYYIQQQAPDHYRNIVDVIRMVAPFFDDFVLRPSPFNPNKIKLEWRERGSDTYFDAYALSDGTLRFICLATLLLQPARKFPAIILLDEPEMGLHPYAIHVLAELLHSAATQTQVIVATQSVTLVNQFEPEDIVVVERQDGQPVCRRLTMEETETWLDGYGLGDLWEKNILGGRPLP,not soluble
10,MIIRPERQGDEEAIARVTEDAFRNVEHRSGTEQLIVARLRDAGALTVSLVAEDSEGIIGHVGFSPVTLSSGETGWFCLAPLSVTPERQGEGVGSRLARDGLAVLERLSAAGCVVVGDPAYYGRFGFRPVAGLSAEGIPDEYFTVLRLHGGTPSGIVGFHPGFDGDNA,not soluble
11,MKLTLEEGTSLVGYVRNVIKQYLKGEEPDIQKYPDKFNNVFGVFVSLHTHPEHDLRGCIGIPEPTMSLIDAIKETSISAAVHDPRFQPLKHSELKNTIIEVSVLTPPEDVEVEDSMEYLEKLEVGRDGLIIEFGPYRGLLLPQVATEYNWDTKQFLSNLCLKAGLPTTAWIEYDVKIKSFQAQVFEELIPNGPVVEKSTYTGCLEHHHHHH,soluble
12,SSGHKCYPWDLQDRYAQDKSVVNKMQQKYWETKQAFIKATGKKEDEHVVASDADLDAKLELFHSIQRTCLDLSKAIVLYQKRICFLSQEENELGKFLRSQGFQDKTRAGKMMQATGKALCFSSQQRLALRNPLCRFHQEVETFRHRAISDTWLTVNRMEQCRTEYRGALLWMKDVSQELDPDLYKQMEKFRKVQTQVRLAKKNFDKLKMDVCQKVDLLGASRCNLLSHMLATYQTTLLHFWEKTSHTMAAIHESFKGYQPYEFTTLKSLQDPMKKLVEKEEKKKINQQESTDAAVQEPSQLISLEEENQRKESSSFKTEDGKSILSALDKGSTHTACSGPIDELLDMKSEEGACLGPVAGTPEPEGADKDDLLLLSEIFNASSLEEGEFSKEWAAVFGDGQVKEPVPTMALGEPDPKAQTGSGFLPSQLLDQNMKDLQASLQEPAKAASDLTAWFSLFADLDPLSNPDAVGKTDKEHELLNA,soluble
13,MAITINIYYSGTNGGAREFAKEMIASGIVEAIRAEKGNSRYEYFFPMDDEETVLLIDSWTDQEALDKHHASPMMTRITELREKYDLHMKVERYVSDVTDPLTKDAAFIRK,not soluble
14,MSYNYLKAARKIICIGRNYAAHIKELNNSTPKQPFFFLKPTSSIVTPLSSSLVKTTRPANSTFNGLNEDGTNPGPIFIPRGVKVHHEIELALIVSKHLSNVTKMKPEEVYDSISGVALALDLTARNVQDEAKKKGLPWTISKGFDTFMPISAIVSREKFSSYKSNLQDIFRVKCSVNGQLRQDGGTNLMLHPLHKILQHISTMISLEPGDIILTGTPAGVGELKPGDRVHCELLQNNDNIVDMNFECENRPGPYEFRET,soluble
15,AHHHHHHGSKFPKNFMFGYSWSGFQFEMGLPGSEVESDWWVWVHDKENIASGLVSGDLPENGPAYWHLYKQDHDIAEKLGMDCIRGGIEWARIFPKPTFDVKVDVEKDEEGNIISVDVPESTIKELEKIANMEALEHYRKIYSDWKERGKTFILNLYHWPLPLWIHDPIAVRKLGPDRAPAGWLDEKTVVEFVKFAAFVAYHLDDLVDMWSTMNEPNVVYNQGYINLRSGFPPGYLSFEAAEKAKFNLIQAHIGAYDAIKEYSEKSVGVIYAFAWHDPLAEEYKDEVEEIRKKDYEFVTILHSKGKLDWIGVNYYSRLVYGAKDGHLVPLPGYGFMSERGGFAKSGRPASDFGWEMYPEGLENLLKYLNNAYELPMIITENGMADAADRYRPHYLVSHLKAVYNAMKEGADVRGYLHWSLTDNYEWAQGFRMRFGLVYVDFETKKRYLRPSALVFREIATQKEIPEELAHLADLKFVTRK,not soluble
16,MVLSHAVSESDVSVHSTFASRYVRTSLPRFKMPENSIPKEAAYQIINDELMLDGNPRLNLASFVTTWMEPECDKLIMSSINKNYVDMDEYPVTTELQNRCVNMIAHLFNAPLEEAETAVGVGTVGSSEAIMLAGLAFKRKWQNKRKAEGKPVDKPNIVTGANVQVCWEKFARYFEVELKEVKLSEGYYVMDPQQAVDMVDENTICVAAILGSTLNGEFEDVKLLNDLLVEKNKETGWDTPIHVDAASGGFIAPFLYPELEWDFRLPLVKSINVSGHKYGLVYAGIGWVIWRNKEDLPEELIFHINYLGADQPTFTLNFSKGSSQVIAQYYQLIRLGHEGYRNVMENCRENMIVLREGLEKTERFNIVSKDEGVPLVAFSLKDSSCHTEFEISDMLRRYGWIVPAYTMPPNAQHITVLRVVIREDFSRTLAERLVIDIEKVMRELDELPSRVIHKISLGQEKSESNSDNLMVTVKKSDIDKQRDIITGWKKFVADRKKTSGIC,soluble
17,MVVGVAGYYGFRNAGDEAILEAIARELKARGHEVVALSGDPKRTREDHGLRAYHRLNPLALLRADLWLLGGGGLLQDATSALSLTYYLSVLRLARLFRKRVVVFNQSLGPLSPWGERRVRKALQGVPVILRDQDSLEYARRLGIPAALGADPALLLPPPPVPREEDLVLVIPRAGVREEALTTLYVAANHLVHEGKQVLVLLLQPGYDDEVAEVFRLHRIERTSDPRRLLYLAAQAGYVISMRLHGLILAAAAGTPFAALSYDPKVAAFAKETGAYYQELPGEPIKLYKAALYGRFPDWEKVARLKERARQSFDLALGEGVPIKGSGRG,soluble
